Test results: publication PMC3621763, “Adenoviral Gene Transfer of PLD1-D4 Enhances Insulin Sensitivity in Mice by Disrupting Phospholipase D1 Interaction with PED/PEA-15” (PLoS ONE, 2013)

Molecular target: T1, PED/PEA-15 over-expressed in transgenic Tg_(Ped/pea-15) mice (UniProt Q15121 1-130)
T1 construct: PED/PEA-15 expressed from the transgene of Tg_(Ped/pea-15) mice; The precipitate from transgenic muscle holds the transgene's product together with the endogenous mouse protein; source: transgenic mice with ubiquitous over-expression of Ped/pea-15, tibialis skeletal muscle lysate
Assay: co-IP; tibialis skeletal muscle lysate (0.5-1 mg) of Wt and Tg_(Ped/pea-15) mice, precleared with pre-immune serum, anti-PED/PEA-15 antibody overnight at 4°C, protein A sepharose, blot with anti-PLD1
Conditions: partners not purified

T1 sequence (Q15121 whole entry): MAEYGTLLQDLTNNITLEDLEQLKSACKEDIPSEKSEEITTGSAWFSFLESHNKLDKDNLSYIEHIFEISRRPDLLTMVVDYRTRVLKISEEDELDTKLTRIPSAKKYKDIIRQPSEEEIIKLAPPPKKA

B1: Phospholipase D1 (PLD1), endogenous in mouse skeletal muscle (enzyme, UniProt Q9Z280 1-1074, looked up)
chain: MSLKSETRVNTSTLQKIAADMSNLIENLDTRELHFEGEEVEYDASPGDPKAQEGCIPFSSIYNTQGFKEPNIQTYLSGCPIKAQVLEVERFTSTSRVPSINLYTIELTHGEFTWQVKRKFKHFQEFHRELLKYKAFIRIPIPTKRHTFRRQNVKEEPREMPSLPRSSENAIQEEQFFGRRKQLEDYLTKILKMPMYRNYHATTEFLDVSQLSFIHDLGPKGLEGMIMKRSGGHRIPGVNCCGHGRACYRWSKRWLIVKDSFLLYMKPDSGAIAFVLLVDKEFRVKVGRKETETKYGLRIDNLSRTLILKCNSYRHARWWGGAIEEFIRKHGADFLKDHRFGSYAALHENTLAKWYVNAKGYFEDIANAMEEASEEIFITDWWLSPEIFLKRPVVEGNRWRLDCILKRKAQQGVRIFIMLYKEVELALGINSEYSKRTLMRLHPNIKVMRHPDHVSSSVYLWAHHEKLVIIDQSVAFVGGIDLAYGRWDDNEHRLTDVGSVKRVTSGLSLGSLTAASVESMESLSLKDKHEFHKKEPISKIVDETDMKLKGIGKSRKFSKFSLYRQLHRHHLHNADSISSIDSTSSYFSHCRSHQNLIHGLKPHLKLFHPSSESEQGLTRHSTDTGSIRSVQTGVGELHGETRFWHGKDYCNFVFKDWVQLDKPFADFIDRYSTPRMPWHDIGSVVHGKAARDVARHFIQRWNFTKIMKPKYRSLSYPFLLPKSQATAHELRYQVPGAVPAKVQLLRSAADWSAGIKHHEESIHAAYIHVIENSKHYIYIENQFFISCADDKVVFNKVGDRIAQRILKAHREGQRYRVYIVIPLLPGFEGDISTGGGNALQAIMHFNYRTMCRGESSILEQLKPELGNKWINYISFCGLRTHAELEGNLVTELIYVHSKLLIADDNTVIIGSANINDRSMLGKRDSEMAVIVQDTETVPSVMDGKEYQAGRFARDLRLECFRLVLGYLSDPSEDLQDPVSDKFFKEIWVSTAARNATIYDKVFRCLPNDEVHNLIQLRDFINKPILAKEDALRAEEELRKIRGFLVQFPLYFLSEENLLPSVGTKEAIVPMEVWT
notes: Phospholipase D1, endogenous protein of mouse skeletal muscle; Detected by blot with an anti-PLD1 antibody in the anti-PED/PEA-15 precipitate; source: endogenous, tibialis skeletal muscle lysate of Wt and Tg_(Ped/pea-15) mice
- fold increase of the co-precipitated interaction against Wt mice: 4 fold
